From paper PMC11480844

B1: H2-Kb / F5 (parent)
chain 1: GDSVTQTEGLVTLTEGLPVMLNCTYQSTYSPFLFWYVQHLNEAPKLLLKSFTDNKRPEHQGFHATLHKSSSSFHLQKSSAQLSDSALYYCALSPSNMGYKLTFGTGTSLLVDP
chain 2: EAAVTQSPRNKVAVTGGKVTLSCNQTNNHNNMYWYRQDTGHGLRLIHYSYGAGSTEKGDIPDGYKASRPSQENFSLILELATPSQTSVYFCASGDASEQYFGPGTRLTVL
chain 3: not shown
chain 4: IQKTPQIQVYSRHPPENGKPNILNCYVTQFHPPHIEIQMLKNGKKIPKVEMSDMSFSKDWSFYILAHTEFTPTETDTYACRVKHDSMAEPKTVYWDRDM
chain 5: SIINFEKL
B2: H2-Kb / B6 (parent)
chain 1: GDSVTQTEGLVTVTEGLPVKLNCTYQTTYLTIAFFWYVQYLNEAPQVLLKSSTDNKRTEHQGFHATLHKSSSSFHLQKSSAQLSDSALYYCALSLGNAGAKLTFGGGTRLTVRP
chain 2: EAAVTQSPRNKVTVTGGNVTLSCRQTNSHNYMYWYRQDTGHGLRLIHYSYGAGNLQIGDVPDGYKATRTTQEDFFLLLELASPSQTSLYFCASSDGMISSSYEQYFGPGTRLTVL
chain 3: not shown
chain 4: B1 chain 4
chain 5: SIINFEKL

Variants of: B1
Test: % of reporter cells activated (NFAT-GFP), raw
Conditions: with F5; scale: % of reporter cells activated
Further: test concentration or dose not given here.

Ratio to parent, by site and new letter:
chain 5 E6: F 0.292; H 0.27; V 0.232; P 0.21; I 0.21; C 0.303; A 0.318; Y 0.296; R 0.453; G 0.281
chain 5 S1: I 0.262; M 0.281; E 0.33; C 0.296; G 0.629; L 0.375; T 0.573; Q 0.554; F 0.262; H 0.337; P 0.315; W 0.292
chain 5 N4: E 0.21; A 0.262; F 0.509; C 0.232; D 0.21; T 0.337; S 0.303; I 0.315; M 0.431; K 0.184; Y 0.307; H 0.36; V 0.322
chain 5 I2: F 0.577; D 0.652; N 0.903; M 1.58; H 0.378; W 1.57; K 0.397; C 0.779; Y 0.393; L 3.22; E 0.558; G 0.989
chain 5 L8: D 1.91; N 0.21; T 0.453; M 0.427; K 0.633; I 0.858; R 0.345; E 0.285; P 0.352; H 1.55; S 1.39
chain 5 I3: P 0.427; Y 0.3; L 0.547; D 0.255; G 0.292; K 0.345; W 0.243; H 0.311; S 0.348
chain 5 F5: G 0.296; P 4.99; W 1.55; A 0.921; N 0.655; I 0.607; M 1.51; Q 1.76; D 0.273; Y 0.502; L 0.79; V 1.15; E 0.315
chain 5 K7: Q 1.38; Y 0.423; N 0.386; I 2.55; R 2.89; A 0.903; D 0.341; E 0.184; W 0.498; S 0.775; F 2.64; L 3.69; T 1.72; G 0.318

Variants of: B2
Test: % of reporter cells activated (NFAT-GFP), raw
Parameters: unit not given here
Conditions: with B6

Ratio to parent: each site, then its substitutions
chain 5 E6: F 0.792; I 0.55; L 0.866; W 0.758; R 0.711; D 0.792; A 1.21; T 0.859; K 0.872; N 1.07; P 1; S 0.852; M 0.946; Q 0.872; V 0.51; G 0.664; H 0.919; C 0.879; Y 0.685
chain 5 K7: D 0.819; T 0.94; W 0.638; C 1; Y 0.738; F 0.812; V 0.872; P 0.758; E 1.11; L 0.785; M 0.765; N 0.664; A 0.832; H 0.926; R 0.477; S 0.644; Q 1.09; G 0.913; I 0.899
chain 5 L8: D 0.456; V 0.403; W 0.604; M 0.718; I 0.758; A 0.53; G 1.09; K 0.819; E 0.329; H 0.859; P 0.671; F 0.523; R 0.812; T 0.55; C 0.725; Q 0.738; S 0.53; Y 0.805; N 0.765
chain 5 I2: Q 0.886; G 0.966; T 1.23; Y 1.07; F 1.01; D 1.07; W 0.926; H 1.15; N 1.2; M 0.98; P 1.16; V 0.987; A 1.13; C 1.18; K 1.08; L 1.08; S 0.987; E 0.879; R 0.765
chain 5 S1: H 1.12; T 1.07; R 0.611; G 1.01; D 1.13; N 0.872; A 1.1; L 1.13; F 1.18; K 0.993; M 0.973; P 0.953; C 1.05; W 1.01; Q 0.926; E 1.12; Y 1; I 0.919; V 0.826
chain 5 F5: K 1.28; L 1.08; Q 1.07; E 1.74; W 1.15; T 0.993; I 1.09; N 0.966; Y 1.28; D 1.25; A 1.15; P 0.973; S 0.98; V 1.09; R 0.765; H 1.28; M 1; C 1.47; G 1.17
chain 5 I3: G 1.01; H 1.01; Y 1.23; V 0.886; S 1.15; F 1.43; R 0.678; D 1.01; E 1.03; W 1.19; A 1.17; K 0.98; C 1.07; T 1.16; Q 1.06; P 1.11; M 1.13; N 0.913; L 1.11
chain 5 N4: T 1.1; M 2.76; P 1.13; Y 0.913; G 0.752; F 1.87; E 0.913; I 1.05; R 1; K 0.926; W 0.832; V 0.893; A 1.17; Q 0.993; L 2.7; C 1.25; S 1.03; D 1.29; H 0.973
